± gives the standard deviation of the averaged measurements.

Experimental findings from the supplement of paper PMC10126150 are described below.

The data set deals with ATP. Kind of data set: switch fluorescence ratio, 500 uM ATP over buffer (Cy3 cluster intensity, sum of 5 cycles each) (fold (ratio)); higher = stronger signal-on switching upon ATP binding; sequences stand for … in TCGTCGGCAGCGTCAGATGTGTATAAGAGACAGTTTTTTTTTTTTTTTTTTTTTTTTT…TC. Conditions: aptamer strand: ATP DNA aptamer (quencher-CACCTGGGGGAGTATTGCGGAGGAAGG + anchor), 100 nM annealed; ATP concentration: 500 uM. Summed up:
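Between each of five buffer/ATP cycles, the flow-cell was stripped with NaOH and re-annealed. Each cycle imaged Cy3-labelled switching-strand clusters, annealed to 100 nM quencher-labelled ATP aptamer on a modified Illumina MiSeq flow-cell, first in selection buffer and then after 15 min with 500 uM ATP at 22 °C. The fluorescence ratio is summed target-cycle over summed buffer-cycle Cy3 intensity per cluster, averaged per switch-domain sequence, with clusters outside 100-1000 RFU excluded.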
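Note: ATP exposure 15 min at 22 °C before imaging.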

GACATATGGG: the switch fluorescence ratio amounted to 0.967 ± 0.035.

GACATGGGAT: the switch fluorescence ratio was 1.01 ± 0.037.

With GACATTAAGG, the switch fluorescence ratio was 1.01 ± 0.084.

As for GACATTTCGT, the switch fluorescence ratio worked out at 0.992 ± 0.019.

As for GACCATACGC, the switch fluorescence ratio stood at 1.42 ± 0.055.

GACCATTGGA: the switch fluorescence ratio stood at 1.006 ± 0.0011.

With GACCATTTGT, the switch fluorescence ratio stood at 0.995 ± 0.033.

In the case of GACCATTTTT, the switch fluorescence ratio stood at 1.02 ± 0.038.

In the case of GACCCGCTTG, the switch fluorescence ratio was 1.06 ± 0.013.

Regarding GACCCGGGTG, the switch fluorescence ratio was found to be 2.98 ± 0.18.

For the sequence GACCCGGGTT, the switch fluorescence ratio is 1.11 ± 0.15.

GACCCGTCCA: the switch fluorescence ratio was determined as 0.995 ± 0.024.

On to GACCCTAAC, for which the switch fluorescence ratio worked out at 1.14 ± 0.016.

Regarding GACCCTGGGT, the switch fluorescence ratio came out at 1.06 ± 0.033.

GACCGAAAGT: the switch fluorescence ratio was 0.998 ± 0.01.

Turning to GACCGAGCGT, the switch fluorescence ratio worked out at 1.1 ± 0.06.

Turning to GACCGGCGTC, the switch fluorescence ratio worked out at 1.02 ± 0.017.

For GACCGGGCCC, the switch fluorescence ratio was determined as 1.01 ± 0.015.

With GACGAAAATC, the switch fluorescence ratio was found to be 1.2 ± 0.032.

GACGAAGGT: the switch fluorescence ratio came to 1.01 ± 0.052.

Take GACGAATCAG: the switch fluorescence ratio amounted to 0.97 ± 0.018.

On to GACGACGGGT, for which the switch fluorescence ratio came out at 1.27 ± 0.041.

On to GACGACGTGT, for which the switch fluorescence ratio was 1.43 ± 0.35.

Turning to GACGACTTGA, the switch fluorescence ratio came to 1.02 ± 0.042.

For GACGCACGAA, the switch fluorescence ratio was 1.58 ± 0.057.

For the sequence GACGCGGTTC, the switch fluorescence ratio was found to be 5.13 ± 0.77.

As for GACGCTAGGG, the switch fluorescence ratio is 1 ± 0.052.

Take GACGGAGACC: the switch fluorescence ratio was determined as 1.11 ± 0.027.

Turning to GACGGAGTTG, the switch fluorescence ratio is 1.01 ± 0.026.

For the sequence GACGGATGTG, the switch fluorescence ratio turned out to be 0.986 ± 0.032.

Turning to GACGGCGTTC, the switch fluorescence ratio is 1.008 ± 0.0058.

GACGGCTGCT: the switch fluorescence ratio was found to be 1.01 ± 0.0042.

On to GACGGCTGGA, for which the switch fluorescence ratio amounted to 1.007 ± 0.0029.

As to GACGGCTGTA, the switch fluorescence ratio was found to be 0.991 ± 0.015.

GACGGGAAAA: the switch fluorescence ratio amounted to 1.07 ± 0.14.

Take GACGGGAGCT: the switch fluorescence ratio came to 1.06 ± 0.021.

Consider GACGGGCAAG, for which the switch fluorescence ratio was determined as 1.02 ± 0.053.

As to GACGGGCCGT, the switch fluorescence ratio is 1.01 ± 0.021.

For the sequence GACGGGCGGA, the switch fluorescence ratio is 1.019 ± 0.0024.

On to GACGGGGAGG, for which the switch fluorescence ratio came out at 0.9995 ± 0.0092.

Take GACGGGGCGT: the switch fluorescence ratio turned out to be 0.989 ± 0.013.

With GACGGGGTAG, the switch fluorescence ratio is 1 ± 0.048.

For the sequence GACGGTCATG, the switch fluorescence ratio is 0.995 ± 0.018.

As to GACGGTGCAT, the switch fluorescence ratio stood at 1.33 ± 0.084.

For GACGGTTGAG, the switch fluorescence ratio worked out at 1.025 ± 0.0057.

For the sequence GACGGTTTAC, the switch fluorescence ratio worked out at 1.65 ± 0.023.

Turning to GACGTAACCT, the switch fluorescence ratio came out at 1.5 ± 0.032.

With GACGTAGT, the switch fluorescence ratio worked out at 1.01 ± 0.022.

Regarding GACGTATATT, the switch fluorescence ratio turned out to be 1.08 ± 0.0067.

With GACGTGAAGG, the switch fluorescence ratio is 1.026 ± 0.0055.

On to GACGTGAGGA, for which the switch fluorescence ratio was 0.989 ± 0.024.

Consider GACGTGAGGT, for which the switch fluorescence ratio amounted to 1.017 ± 0.0012.

Consider GACGTGTCAA, for which the switch fluorescence ratio came to 1.03 ± 0.019.

Take GACGTGTGAG: the switch fluorescence ratio came out at 0.993 ± 0.034.

With GACGTTTAAG, the switch fluorescence ratio came to 0.977 ± 0.029.

In the case of GACTACGGTT, the switch fluorescence ratio stood at 1.006 ± 0.0095.

Take GACTATTATG: the switch fluorescence ratio came out at 1 ± 0.019.

Take GACTCGGGCG: the switch fluorescence ratio is 1.014 ± 0.0082.

Regarding GACTGCGGAG, the switch fluorescence ratio was determined as 1 ± 0.026.

Consider GACTGCTTGG, for which the switch fluorescence ratio came out at 0.9518 ± 0.0063.

Take GACTGGAAGG: the switch fluorescence ratio stood at 1.01 ± 0.011.

For GACTGGATTG, the switch fluorescence ratio was determined as 0.996 ± 0.06.

Turning to GACTGGGCAG, the switch fluorescence ratio was 1.01 ± 0.011.

As for GACTGGGGAC, the switch fluorescence ratio stood at 1.01 ± 0.012.

Take GACTGGTCGA: the switch fluorescence ratio came out at 0.996 ± 0.053.

GACTGTCGAG: the switch fluorescence ratio was 0.991 ± 0.027.

Regarding GACTTATTTT, the switch fluorescence ratio is 0.9849 ± 0.0014.

As for GACTTGAGTT, the switch fluorescence ratio came out at 0.9971 ± 0.0091.

For GACTTGTGGG, the switch fluorescence ratio came out at 1.02 ± 0.084.

For GACTTTGGTG, the switch fluorescence ratio was found to be 1.01 ± 0.026.

For GACTTTTCCT, the switch fluorescence ratio is 1.3 ± 0.41.

For GAGAAATACG, the switch fluorescence ratio was determined as 1.47 ± 0.08.

For the sequence GAGAAATGCG, the switch fluorescence ratio was 1.03 ± 0.012.

Take GAGAACGGTT: the switch fluorescence ratio was 1.03 ± 0.052.

For the sequence GAGAAGCAGT, the switch fluorescence ratio amounted to 1 ± 0.024.

Turning to GAGAAGGAGG, the switch fluorescence ratio amounted to 1.01 ± 0.012.

GAGAAGGGAT: the switch fluorescence ratio stood at 0.999 ± 0.022.

For the sequence GAGAATGAGG, the switch fluorescence ratio is 0.962 ± 0.0093.

GAGAATTATG: the switch fluorescence ratio was 0.9933 ± 0.0023.

For the sequence GAGAATTGAA, the switch fluorescence ratio worked out at 0.99 ± 0.014.

Take GAGAATTTGT: the switch fluorescence ratio worked out at 0.978 ± 0.033.

For the sequence GAGACAGCGC, the switch fluorescence ratio worked out at 1.02 ± 0.062.

As for GAGACAGGAT, the switch fluorescence ratio was found to be 1.01 ± 0.04.

For GAGACATCGT, the switch fluorescence ratio came to 0.986 ± 0.018.

For GAGACGGAAT, the switch fluorescence ratio came to 1.06 ± 0.025.

For GAGACGGGGG, the switch fluorescence ratio was 1.02 ± 0.033.

On to GAGACGTTGG, for which the switch fluorescence ratio worked out at 0.985 ± 0.014.

For GAGACTTGGG, the switch fluorescence ratio came out at 1.03 ± 0.029.

For GAGAGAGGGT, the switch fluorescence ratio was 0.997 ± 0.014.

Regarding GAGAGAGTGA, the switch fluorescence ratio is 0.963 ± 0.025.

On to GAGAGATGTT, for which the switch fluorescence ratio turned out to be 0.999 ± 0.021.

With GAGAGATTTT, the switch fluorescence ratio was found to be 0.997 ± 0.034.

In the case of GAGAGCAAGT, the switch fluorescence ratio worked out at 1.14 ± 0.034.

Turning to GAGAGCGGTG, the switch fluorescence ratio was determined as 0.9953 ± 0.0075.

As for GAGAGGAAAT, the switch fluorescence ratio stood at 1.004 ± 0.0059.

Turning to GAGAGGATGG, the switch fluorescence ratio is 0.984 ± 0.042.

Regarding GAGAGGCACA, the switch fluorescence ratio came out at 1.02 ± 0.051.

Regarding GAGAGGGGGT, the switch fluorescence ratio is 0.998 ± 0.05.

For the sequence GAGAGGGTAG, the switch fluorescence ratio is 0.9801 ± 0.0095.

As for GAGAGGGTCA, the switch fluorescence ratio worked out at 0.98 ± 0.025.

GAGAGGTTTT: the switch fluorescence ratio was 1 ± 0.029.

Regarding GAGAGTATAA, the switch fluorescence ratio was determined as 0.99 ± 0.022.

Regarding GAGAGTATGG, the switch fluorescence ratio is 0.982 ± 0.049.

For GAGAGTGACA, the switch fluorescence ratio was 1.01 ± 0.062.

As for GAGAGTGGCA, the switch fluorescence ratio came out at 0.988 ± 0.031.

GAGAGTTGTG: the switch fluorescence ratio came to 0.988 ± 0.034.

Turning to GAGATAGGTT, the switch fluorescence ratio came out at 1.03 ± 0.073.

Take GAGATATATG: the switch fluorescence ratio was determined as 0.983 ± 0.052.

Take GAGATCTAGT: the switch fluorescence ratio stood at 1.01 ± 0.019.

Consider GAGATGAAAC, for which the switch fluorescence ratio is 0.976 ± 0.011.

As to GAGATGTGGT, the switch fluorescence ratio stood at 0.985 ± 0.031.

As to GAGATGTTTT, the switch fluorescence ratio amounted to 0.988 ± 0.043.

Regarding GAGATTATGG, the switch fluorescence ratio worked out at 0.966 ± 0.022.

On to GAGATTGAGG, for which the switch fluorescence ratio came out at 1.02 ± 0.038.

GAGATTGGAA: the switch fluorescence ratio stood at 1.002 ± 0.0025.

As to GAGATTTAGT, the switch fluorescence ratio is 0.973 ± 0.049.

As for GAGCAAAAGG, the switch fluorescence ratio came to 1.004 ± 0.0058.

As for GAGCAAGGTT, the switch fluorescence ratio amounted to 1.24 ± 0.2.

On to GAGCAGCATT, for which the switch fluorescence ratio worked out at 1.05 ± 0.014.

Regarding GAGCCAGATT, the switch fluorescence ratio is 1.0095 ± 0.00059.
